Sequences and labels used below:
T1: GST-CNF1 (full-length Cytotoxic Necrotizing Factor 1 of Escherichia coli as GST fusion) (Escherichia coli, UniProt Q47106 1-1014, DyLight488 Maleimide label in the flow cytometry experiments only)
T1 construct: also called full-length CNF1; full toxin
T1 sequence: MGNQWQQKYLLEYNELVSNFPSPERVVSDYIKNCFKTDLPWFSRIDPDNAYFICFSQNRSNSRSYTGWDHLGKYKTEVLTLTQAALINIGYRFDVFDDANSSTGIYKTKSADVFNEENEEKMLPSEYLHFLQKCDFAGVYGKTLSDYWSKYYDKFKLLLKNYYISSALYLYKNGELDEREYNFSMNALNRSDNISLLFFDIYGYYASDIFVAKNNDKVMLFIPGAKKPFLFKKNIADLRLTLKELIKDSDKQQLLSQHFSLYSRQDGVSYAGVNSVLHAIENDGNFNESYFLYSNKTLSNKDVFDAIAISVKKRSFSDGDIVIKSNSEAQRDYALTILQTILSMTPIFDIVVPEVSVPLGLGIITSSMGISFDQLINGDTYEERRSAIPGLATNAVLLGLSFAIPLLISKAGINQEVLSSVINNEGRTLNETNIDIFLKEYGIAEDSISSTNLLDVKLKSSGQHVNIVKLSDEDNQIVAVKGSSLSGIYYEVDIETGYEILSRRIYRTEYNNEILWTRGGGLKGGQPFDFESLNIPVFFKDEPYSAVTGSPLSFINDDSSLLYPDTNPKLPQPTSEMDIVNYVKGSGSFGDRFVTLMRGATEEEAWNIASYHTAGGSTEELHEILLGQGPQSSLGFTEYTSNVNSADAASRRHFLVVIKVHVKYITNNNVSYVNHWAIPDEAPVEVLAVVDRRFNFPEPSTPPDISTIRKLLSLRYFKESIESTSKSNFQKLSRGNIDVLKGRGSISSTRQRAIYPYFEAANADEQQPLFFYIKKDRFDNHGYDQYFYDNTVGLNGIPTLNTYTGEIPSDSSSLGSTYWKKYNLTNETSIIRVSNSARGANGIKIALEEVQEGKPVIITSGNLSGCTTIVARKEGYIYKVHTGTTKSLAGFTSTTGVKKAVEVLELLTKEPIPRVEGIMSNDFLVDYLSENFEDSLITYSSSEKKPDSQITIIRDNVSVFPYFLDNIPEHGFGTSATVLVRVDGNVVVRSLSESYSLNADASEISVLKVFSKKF

T2: GST-CNF1 (full-length Cytotoxic Necrotizing Factor 1 of Escherichia coli as GST fusion) (Escherichia coli, UniProt Q47106 1-1014, DyLight488 Maleimide label in the flow cytometry experiments only)
T2 chain: T1 sequence

B1: CNF1 (720–1014), GST-tag removed (domain or fragment)
chain: SIESTSKSNFQKLSRGNIDVLKGRGSISSTRQRAIYPYFEAANADEQQPLFFYIKKDRFDNHGYDQYFYDNTVGLNGIPTLNTYTGEIPSDSSSLGSTYWKKYNLTNETSIIRVSNSARGANGIKIALEEVQEGKPVIITSGNLSGCTTIVARKEGYIYKVHTGTTKSLAGFTSTTGVKKAVEVLELLTKEPIPRVEGIMSNDFLVDYLSENFEDSLITYSSSEKKPDSQITIIRDNVSVFPYFLDNIPEHGFGTSATVLVRVDGNVVVRSLSESYSLNADASEISVLKVFSKKF
notes: also called CNF1 catalytic unit
B2: Recombinant human extracellular rLu/BCAM with Fc-tag (Fc fusion)
chain: EVRLSVPPLVEVMRGKSVILDCTPTGTHDHYMLEWFLTDRSGARPRLASAEMQGSELQVTMHDTRGRSPPYQLDSQGRLVLAEAQVGDERDYVCVVRAGAAGTAEATARLNVFAKPEATEVSPNKGTLSVMEDSAQEIATCNSRNGNPAPKITWYRNGQRLEVPVEMNPEGYMTSRTVREASGLLSLTSTLYLRLRKDDRDASFHCAAHYSLPEGRHGRLDSPTFHLTLHYPTEHVQFWVGSPSTPAGWVREGDTVQLLCRGDGSPSPEYTLFRLQDEQEEVLNVNLEGNLTLEGVTRGQSGTYGCRVEDYDAADDVQLSKTLELRVAYLDPLELSEGKVLSLPLNSSAVVNCSVHGLPTPALRWTKDSTPLGDGPMLSLSSITFDSNGTYVCEASLPTVPVLSRTQNFTLLVQGSPELKTAEIEPKADGSWREGDEVTLICSARGHPDPKLSWSQLGGSPAEPIPGRQGWVSSSLTLKVTSALSRDGISCEASNPHGNKRHVFHFGTVSPQTSQA
notes: also called rLu/BCAM-Fc; recombinant Lu/BCAM; source: bought: Hölzel Diagnostika Handels GmbH
B3: Lu12-Fc (Fc fusion)
chain: EVRLSVPPLVEVMRGKSVILDCTPTGTHDHYMLEWFLTDRSGARPRLASAEMQGSELQVTMHDTRGRSPPYQLDSQGRLVLAEAQVGDERDYVCVVRAGAAGTAEATARLNVFAKPEATEVSPNKGTLSVMEDSAQEIATCNSRNGNPAPKITWYRNGQRLEVPVEMNPEGYMTSRTVREASGLLSLTSTLYLRLRKDDRDASFHCAAHYSLPEGRHGRLDSPTFH

In one data set the target is Lu12-Fc. The experiment in a line: SPR.
In data set [1] the target is B2. The experiment in a line: SEC. As to conditions: both partners purified.
Data set [2] concerns the target B2. The experiment in a line: small-angle X-ray scattering (SAXS). As to conditions: both partners purified.
For data set [3], the target named is T1, GST-CNF1 (full-length Cytotoxic …). The experiment in a line: far-Western, overlay or dot blot; CNF proteins spotted on a nitrocellulose membrane, incubated with 5 µM rLu/BCAM in TBST for 30 min, then blocked with 5% milk; bound rLu/BCAM detected with an anti-Lu/BCAM antibody. The note with it: both partners purified.
The data set “SEC” concerns the molecule itself. The experiment in a line: SEC. A general note: In gel filtration, larger molecules generally elute earlier.
In data set [4] the target is T2, GST-CNF1 (full-length Cytotoxic …). The data set is described as follows: SPR. In general terms: In SPR one partner is held on a chip, and binding of the other changes the refractive index at the surface.

Where “and” joins values, the source holds several entries; their conditions need not be identical. Identical values can stand only once.

The term Kd denotes the equilibrium constant for the complex coming apart. For “GST-CNF1 (full-length Cytotoxic Necrotizing Factor 1 of Escherichia coli as GST fusion) (from UniProt Q47106 1-1014) (natural protein)”, the Kd with Lu12-Fc worked out at 2 nM.
As a reminder, the stoichiometry N is a count of units in the complex or per binding partner. As for B1, the “stoichiometry N” value in data set [1] was 6 Lu/BCAM per CNF1; in data set [2] it was 1 CNF1 molecules per rLu/BCAM assembly and 2 CNF1 molecules per rLu/BCAM assembly.
On to B2, for which, in data set [3], the binding result was “binds”. In addition, the “stoichiometry N” value in the data set “SEC” stood at 6.
As a reminder, the koff is the first-order rate constant of dissociation. In the case of B3, the off-rate (koff) in data set [4] came out at 3e-05 s⁻¹.

The record behind these values is PMC5793090 (Toxins, 2017).
